Laboratory results: the supplement of paper PMC10065799, “High-throughput profiling of sequence recognition by tyrosine kinases and SH2 domains using bacterial peptide display” (eLife, 2023)

target: EPHB1 (UniProt P54762); assay: phosphorylation enrichment, bacterial display (enrichment ratio); higher = better substrate or ligand; peptides without Tyr show the background
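Also: 11-residue human phosphosite peptides and single-mutation variants displayed on the E. coli surface, counted by deep sequencing, each peptide's frequency after selection divided by its frequency in the unselected input library; frequency after pTyr selection over input frequency; kinase dosed for 20-30% of maximal phosphorylation in three min.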

Chain of EPHB1 (P54762 whole entry, looked up): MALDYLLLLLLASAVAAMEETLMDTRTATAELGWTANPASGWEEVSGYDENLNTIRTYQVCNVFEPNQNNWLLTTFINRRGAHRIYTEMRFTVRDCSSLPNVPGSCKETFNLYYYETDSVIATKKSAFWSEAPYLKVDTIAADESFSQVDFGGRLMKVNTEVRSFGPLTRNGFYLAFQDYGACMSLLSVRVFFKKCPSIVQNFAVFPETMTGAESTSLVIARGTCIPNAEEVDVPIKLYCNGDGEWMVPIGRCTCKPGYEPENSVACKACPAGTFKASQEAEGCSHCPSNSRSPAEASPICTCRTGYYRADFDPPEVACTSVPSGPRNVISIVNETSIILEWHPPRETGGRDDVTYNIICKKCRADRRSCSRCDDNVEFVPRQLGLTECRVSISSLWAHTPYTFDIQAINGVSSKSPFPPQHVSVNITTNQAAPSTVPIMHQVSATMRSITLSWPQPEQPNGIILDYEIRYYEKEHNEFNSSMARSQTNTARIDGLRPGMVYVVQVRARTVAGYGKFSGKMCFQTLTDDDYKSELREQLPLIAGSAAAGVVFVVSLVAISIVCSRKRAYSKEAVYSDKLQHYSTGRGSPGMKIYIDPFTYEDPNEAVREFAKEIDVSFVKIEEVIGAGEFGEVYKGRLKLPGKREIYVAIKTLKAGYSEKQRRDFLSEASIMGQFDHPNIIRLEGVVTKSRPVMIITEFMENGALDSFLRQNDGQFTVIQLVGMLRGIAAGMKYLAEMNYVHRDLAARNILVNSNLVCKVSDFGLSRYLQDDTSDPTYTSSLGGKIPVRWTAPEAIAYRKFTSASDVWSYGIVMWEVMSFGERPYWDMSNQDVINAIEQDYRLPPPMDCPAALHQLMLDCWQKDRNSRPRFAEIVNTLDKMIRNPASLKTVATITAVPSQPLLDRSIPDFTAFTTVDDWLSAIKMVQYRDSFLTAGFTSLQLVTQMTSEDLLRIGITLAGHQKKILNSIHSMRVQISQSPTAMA

Sequence | phosphorylation enrichment
GYITSYREEEQ | 0.677
RLLVFYPWTQR [HBB_Y36_V35F] | 0.794
RMDGTYACSYT [FLNB_Y704] | 0.876
FRAVKYLQMVG [AVPR2_Y117_C112Y_YF] | 0.509
LPVHFYSHVEH [PYGM_Y204_G205S] | 1.05
FRVDCYKNFVA [FHL1_Y213_C209R_YF] | 0.783
IMFTSYFLTIL [TAS2R16_Y239_V235M] | 0.755
HQNGMYRLHQD [SGSH_Y89_G90R] | 0.741
TSLAQYDSNSK [BMX_Y216] | 0.352
AGIENYKSRFG [NKD2_Y256_T257K] | 0.451
GVASDYKCIDP [VPS13B_Y1991] | 0.739
SGDINYGQFAQ [PLCG1_Y210_T209N] | 0.478
WANPEYTGGFK | 0.549
SLFNGYVFSGV [NEIL3_Y71_YF] | 0.514
EPSLDYMVTKI [CPS1_Y768] | 0.756
RIDRKYKKVRF [F8_Y442_G439D] | 0.761

test system: c-Src; assay: as above

Sequence | phosphorylation enrichment
GYITSYREEEQ | 0.463
RLLVFYPWTQR [HBB_Y36_V35F] | 0.509
RMDGTYACSYT [FLNB_Y704] | 3.25
FRAVKYLQMVG [AVPR2_Y117_C112Y_YF] | 0.496
LPVHFYSHVEH [PYGM_Y204_G205S] | 1.21
FRVDCYKNFVA [FHL1_Y213_C209R_YF] | 0.502
IMFTSYFLTIL [TAS2R16_Y239_V235M] | 0.578
HQNGMYRLHQD [SGSH_Y89_G90R] | 0.5
TSLAQYDSNSK [BMX_Y216] | 0.479
AGIENYKSRFG [NKD2_Y256_T257K] | 0.363
GVASDYKCIDP [VPS13B_Y1991] | 0.427
SGDINYGQFAQ [PLCG1_Y210_T209N] | 0.647
WANPEYTGGFK | 0.685
SLFNGYVFSGV [NEIL3_Y71_YF] | 0.418
EPSLDYMVTKI [CPS1_Y768] | 0.582
RIDRKYKKVRF [F8_Y442_G439D] | 1.32

test system: AncSZ; assay: as above

Sequence | phosphorylation enrichment
GYITSYREEEQ | 1.29
RLLVFYPWTQR [HBB_Y36_V35F] | 2.05
RMDGTYACSYT [FLNB_Y704] | 0.934
FRAVKYLQMVG [AVPR2_Y117_C112Y_YF] | 0.889
LPVHFYSHVEH [PYGM_Y204_G205S] | 1.13
FRVDCYKNFVA [FHL1_Y213_C209R_YF] | 1.23
IMFTSYFLTIL [TAS2R16_Y239_V235M] | 1.34
HQNGMYRLHQD [SGSH_Y89_G90R] | 0.814
TSLAQYDSNSK [BMX_Y216] | 0.622
AGIENYKSRFG [NKD2_Y256_T257K] | 0.578
GVASDYKCIDP [VPS13B_Y1991] | 1.08
SGDINYGQFAQ [PLCG1_Y210_T209N] | 0.727
WANPEYTGGFK | 1.29
SLFNGYVFSGV [NEIL3_Y71_YF] | 0.779
EPSLDYMVTKI [CPS1_Y768] | 1.22
RIDRKYKKVRF [F8_Y442_G439D] | 1.25

target: Fyn (UniProt P06241); assay: as above
Sequence (P06241 whole entry, looked up): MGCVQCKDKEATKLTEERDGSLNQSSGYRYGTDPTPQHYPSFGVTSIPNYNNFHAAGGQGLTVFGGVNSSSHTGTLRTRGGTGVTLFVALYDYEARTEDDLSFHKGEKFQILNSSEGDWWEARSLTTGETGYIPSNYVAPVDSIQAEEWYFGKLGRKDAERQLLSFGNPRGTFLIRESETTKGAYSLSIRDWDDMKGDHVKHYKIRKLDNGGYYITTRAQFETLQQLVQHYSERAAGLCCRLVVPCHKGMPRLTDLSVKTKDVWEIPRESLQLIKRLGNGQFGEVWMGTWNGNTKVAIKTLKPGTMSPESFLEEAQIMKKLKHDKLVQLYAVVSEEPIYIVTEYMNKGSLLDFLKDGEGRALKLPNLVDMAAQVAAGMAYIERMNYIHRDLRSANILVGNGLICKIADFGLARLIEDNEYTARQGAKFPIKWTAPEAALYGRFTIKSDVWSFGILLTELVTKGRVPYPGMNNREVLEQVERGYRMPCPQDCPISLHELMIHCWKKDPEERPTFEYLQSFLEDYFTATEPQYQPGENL

Sequence | phosphorylation enrichment
GYITSYREEEQ | 0.554
RLLVFYPWTQR [HBB_Y36_V35F] | 0.616
RMDGTYACSYT [FLNB_Y704] | 1.87
FRAVKYLQMVG [AVPR2_Y117_C112Y_YF] | 0.397
LPVHFYSHVEH [PYGM_Y204_G205S] | 0.689
FRVDCYKNFVA [FHL1_Y213_C209R_YF] | 0.566
IMFTSYFLTIL [TAS2R16_Y239_V235M] | 0.622
HQNGMYRLHQD [SGSH_Y89_G90R] | 0.42
TSLAQYDSNSK [BMX_Y216] | 0.344
AGIENYKSRFG [NKD2_Y256_T257K] | 0.356
GVASDYKCIDP [VPS13B_Y1991] | 0.548
SGDINYGQFAQ [PLCG1_Y210_T209N] | 0.554
WANPEYTGGFK | 0.422
SLFNGYVFSGV [NEIL3_Y71_YF] | 0.451
EPSLDYMVTKI [CPS1_Y768] | 0.646
RIDRKYKKVRF [F8_Y442_G439D] | 0.849

target: Hck (UniProt P08631); assay: as above
Sequence (P08631 whole entry, looked up): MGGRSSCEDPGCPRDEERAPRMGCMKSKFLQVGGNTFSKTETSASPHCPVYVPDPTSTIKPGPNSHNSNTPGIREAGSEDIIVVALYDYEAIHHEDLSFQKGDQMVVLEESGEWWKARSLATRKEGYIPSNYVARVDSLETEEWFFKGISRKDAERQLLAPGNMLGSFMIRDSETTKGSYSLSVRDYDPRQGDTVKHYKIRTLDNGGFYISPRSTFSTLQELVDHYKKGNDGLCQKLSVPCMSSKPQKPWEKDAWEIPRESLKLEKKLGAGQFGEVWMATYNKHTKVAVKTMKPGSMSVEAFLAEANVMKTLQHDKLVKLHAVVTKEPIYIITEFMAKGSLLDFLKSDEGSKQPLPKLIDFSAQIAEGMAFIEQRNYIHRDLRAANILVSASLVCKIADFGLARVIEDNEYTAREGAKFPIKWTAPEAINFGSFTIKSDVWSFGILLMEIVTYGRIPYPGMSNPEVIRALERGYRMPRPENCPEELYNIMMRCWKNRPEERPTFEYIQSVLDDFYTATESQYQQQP

Sequence | phosphorylation enrichment
GYITSYREEEQ | 0.543
RLLVFYPWTQR [HBB_Y36_V35F] | 0.557
RMDGTYACSYT [FLNB_Y704] | 1.74
FRAVKYLQMVG [AVPR2_Y117_C112Y_YF] | 0.319
LPVHFYSHVEH [PYGM_Y204_G205S] | 0.852
FRVDCYKNFVA [FHL1_Y213_C209R_YF] | 0.511
IMFTSYFLTIL [TAS2R16_Y239_V235M] | 0.623
HQNGMYRLHQD [SGSH_Y89_G90R] | 0.461
TSLAQYDSNSK [BMX_Y216] | 0.428
AGIENYKSRFG [NKD2_Y256_T257K] | 0.517
GVASDYKCIDP [VPS13B_Y1991] | 0.747
SGDINYGQFAQ [PLCG1_Y210_T209N] | 0.65
WANPEYTGGFK | 0.575
SLFNGYVFSGV [NEIL3_Y71_YF] | 0.555
EPSLDYMVTKI [CPS1_Y768] | 0.566
RIDRKYKKVRF [F8_Y442_G439D] | 1.05

target: Jak2 (UniProt O60674); assay: as above
Sequence (O60674 whole entry, looked up): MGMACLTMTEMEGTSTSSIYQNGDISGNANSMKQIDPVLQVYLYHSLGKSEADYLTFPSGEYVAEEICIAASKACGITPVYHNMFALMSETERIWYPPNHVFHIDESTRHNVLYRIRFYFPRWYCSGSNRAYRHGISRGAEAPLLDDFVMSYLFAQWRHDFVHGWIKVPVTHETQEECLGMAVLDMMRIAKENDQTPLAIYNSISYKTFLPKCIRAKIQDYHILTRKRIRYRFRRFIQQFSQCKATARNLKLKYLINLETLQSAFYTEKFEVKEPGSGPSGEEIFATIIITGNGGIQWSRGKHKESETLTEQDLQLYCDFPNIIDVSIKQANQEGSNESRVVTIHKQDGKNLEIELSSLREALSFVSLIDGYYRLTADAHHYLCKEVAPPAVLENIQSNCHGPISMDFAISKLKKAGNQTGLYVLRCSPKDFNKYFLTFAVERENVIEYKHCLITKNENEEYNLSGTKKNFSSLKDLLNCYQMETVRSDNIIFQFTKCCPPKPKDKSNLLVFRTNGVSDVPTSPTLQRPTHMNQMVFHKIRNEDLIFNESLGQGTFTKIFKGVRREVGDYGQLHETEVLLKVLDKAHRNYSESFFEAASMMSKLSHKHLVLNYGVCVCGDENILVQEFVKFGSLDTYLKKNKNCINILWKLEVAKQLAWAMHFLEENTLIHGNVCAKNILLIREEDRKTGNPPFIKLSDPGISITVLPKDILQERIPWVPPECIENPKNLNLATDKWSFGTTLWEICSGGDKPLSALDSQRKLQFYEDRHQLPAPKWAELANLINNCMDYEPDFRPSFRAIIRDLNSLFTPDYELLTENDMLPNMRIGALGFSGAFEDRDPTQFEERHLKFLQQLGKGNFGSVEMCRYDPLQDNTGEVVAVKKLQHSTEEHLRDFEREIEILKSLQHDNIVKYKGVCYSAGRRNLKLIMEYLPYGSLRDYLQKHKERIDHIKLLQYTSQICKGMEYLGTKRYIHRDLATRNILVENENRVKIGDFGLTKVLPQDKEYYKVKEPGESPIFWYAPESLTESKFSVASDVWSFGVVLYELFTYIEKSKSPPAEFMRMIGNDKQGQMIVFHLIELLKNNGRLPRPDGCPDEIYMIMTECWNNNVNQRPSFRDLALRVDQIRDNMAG

Sequence | phosphorylation enrichment
GYITSYREEEQ | 1.15
RLLVFYPWTQR [HBB_Y36_V35F] | 1.73
RMDGTYACSYT [FLNB_Y704] | 0.92
FRAVKYLQMVG [AVPR2_Y117_C112Y_YF] | 0.902
LPVHFYSHVEH [PYGM_Y204_G205S] | 1.71
FRVDCYKNFVA [FHL1_Y213_C209R_YF] | 1.11
IMFTSYFLTIL [TAS2R16_Y239_V235M] | 2.38
HQNGMYRLHQD [SGSH_Y89_G90R] | 0.933
TSLAQYDSNSK [BMX_Y216] | 0.579
AGIENYKSRFG [NKD2_Y256_T257K] | 0.537
GVASDYKCIDP [VPS13B_Y1991] | 0.703
SGDINYGQFAQ [PLCG1_Y210_T209N] | 0.631
WANPEYTGGFK | 0.734
SLFNGYVFSGV [NEIL3_Y71_YF] | 0.908
EPSLDYMVTKI [CPS1_Y768] | 1.05
RIDRKYKKVRF [F8_Y442_G439D] | 2.67

target: FGFR3 (UniProt P22607); assay: as above
Sequence (P22607 whole entry, looked up): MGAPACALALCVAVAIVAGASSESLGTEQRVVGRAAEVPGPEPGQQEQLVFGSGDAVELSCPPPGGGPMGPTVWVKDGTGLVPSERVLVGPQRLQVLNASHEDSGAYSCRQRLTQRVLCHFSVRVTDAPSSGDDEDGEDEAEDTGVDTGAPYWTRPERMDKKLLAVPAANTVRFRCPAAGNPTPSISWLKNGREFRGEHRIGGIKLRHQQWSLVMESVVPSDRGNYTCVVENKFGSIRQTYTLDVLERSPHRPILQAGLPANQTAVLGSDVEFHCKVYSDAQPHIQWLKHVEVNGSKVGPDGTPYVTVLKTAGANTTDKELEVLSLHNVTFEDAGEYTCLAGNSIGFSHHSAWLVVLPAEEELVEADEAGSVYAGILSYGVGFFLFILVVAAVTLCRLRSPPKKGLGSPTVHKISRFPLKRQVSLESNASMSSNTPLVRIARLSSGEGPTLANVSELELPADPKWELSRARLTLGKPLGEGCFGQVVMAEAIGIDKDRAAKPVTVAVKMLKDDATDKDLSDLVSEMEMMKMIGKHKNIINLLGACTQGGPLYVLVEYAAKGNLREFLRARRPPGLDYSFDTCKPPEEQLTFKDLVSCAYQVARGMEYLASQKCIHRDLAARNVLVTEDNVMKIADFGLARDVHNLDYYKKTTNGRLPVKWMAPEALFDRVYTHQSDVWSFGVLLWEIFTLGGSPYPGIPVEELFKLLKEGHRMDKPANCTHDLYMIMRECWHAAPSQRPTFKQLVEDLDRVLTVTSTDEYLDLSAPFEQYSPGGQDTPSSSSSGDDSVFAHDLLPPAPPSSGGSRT

Sequence | phosphorylation enrichment
GYITSYREEEQ | 0.711
RLLVFYPWTQR [HBB_Y36_V35F] | 0.891
RMDGTYACSYT [FLNB_Y704] | 0.579
FRAVKYLQMVG [AVPR2_Y117_C112Y_YF] | 0.518
LPVHFYSHVEH [PYGM_Y204_G205S] | 1.29
FRVDCYKNFVA [FHL1_Y213_C209R_YF] | 0.956
IMFTSYFLTIL [TAS2R16_Y239_V235M] | 0.922
HQNGMYRLHQD [SGSH_Y89_G90R] | 0.661
TSLAQYDSNSK [BMX_Y216] | 0.443
AGIENYKSRFG [NKD2_Y256_T257K] | 0.452
GVASDYKCIDP [VPS13B_Y1991] | 0.827
SGDINYGQFAQ [PLCG1_Y210_T209N] | 0.548
WANPEYTGGFK | 0.646
SLFNGYVFSGV [NEIL3_Y71_YF] | 0.584
EPSLDYMVTKI [CPS1_Y768] | 0.797
RIDRKYKKVRF [F8_Y442_G439D] | 0.922

target: EPHB2 (UniProt P29323); assay: as above
Sequence (P29323 whole entry, looked up): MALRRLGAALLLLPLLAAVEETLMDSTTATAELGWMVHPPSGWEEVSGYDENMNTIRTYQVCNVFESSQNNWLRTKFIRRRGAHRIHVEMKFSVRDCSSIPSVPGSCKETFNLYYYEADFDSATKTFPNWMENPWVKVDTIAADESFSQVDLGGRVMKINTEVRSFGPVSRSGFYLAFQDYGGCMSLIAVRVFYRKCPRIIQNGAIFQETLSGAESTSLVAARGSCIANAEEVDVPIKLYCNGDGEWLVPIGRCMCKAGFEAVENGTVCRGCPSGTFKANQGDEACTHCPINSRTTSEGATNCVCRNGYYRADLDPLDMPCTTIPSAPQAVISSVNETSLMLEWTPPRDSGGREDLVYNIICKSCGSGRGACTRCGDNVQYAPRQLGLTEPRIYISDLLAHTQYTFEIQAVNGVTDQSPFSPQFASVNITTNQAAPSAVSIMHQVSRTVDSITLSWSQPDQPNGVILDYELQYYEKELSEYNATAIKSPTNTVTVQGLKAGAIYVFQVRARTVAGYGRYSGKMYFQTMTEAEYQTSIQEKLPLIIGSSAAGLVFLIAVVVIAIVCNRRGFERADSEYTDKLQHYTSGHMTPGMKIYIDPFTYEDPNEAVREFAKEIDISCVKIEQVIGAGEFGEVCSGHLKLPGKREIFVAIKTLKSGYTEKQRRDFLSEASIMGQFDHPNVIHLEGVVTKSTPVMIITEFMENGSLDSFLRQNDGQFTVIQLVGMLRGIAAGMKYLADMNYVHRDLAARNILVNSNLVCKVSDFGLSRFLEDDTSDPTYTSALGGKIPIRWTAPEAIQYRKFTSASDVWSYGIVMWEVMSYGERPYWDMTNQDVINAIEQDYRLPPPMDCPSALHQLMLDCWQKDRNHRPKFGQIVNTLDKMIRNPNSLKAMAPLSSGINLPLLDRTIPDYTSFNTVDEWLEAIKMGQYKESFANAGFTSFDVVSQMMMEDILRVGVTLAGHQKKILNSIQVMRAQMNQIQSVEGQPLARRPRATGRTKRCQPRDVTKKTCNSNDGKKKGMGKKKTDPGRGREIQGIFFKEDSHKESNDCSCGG

Sequence | phosphorylation enrichment
GYITSYREEEQ | 0.659
RLLVFYPWTQR [HBB_Y36_V35F] | 0.938
RMDGTYACSYT [FLNB_Y704] | 0.85
FRAVKYLQMVG [AVPR2_Y117_C112Y_YF] | 0.393
LPVHFYSHVEH [PYGM_Y204_G205S] | 0.878
FRVDCYKNFVA [FHL1_Y213_C209R_YF] | 0.68
IMFTSYFLTIL [TAS2R16_Y239_V235M] | 0.555
HQNGMYRLHQD [SGSH_Y89_G90R] | 0.745
TSLAQYDSNSK [BMX_Y216] | 0.568
AGIENYKSRFG [NKD2_Y256_T257K] | 0.377
GVASDYKCIDP [VPS13B_Y1991] | 0.589
SGDINYGQFAQ [PLCG1_Y210_T209N] | 0.63
WANPEYTGGFK | 0.383
SLFNGYVFSGV [NEIL3_Y71_YF] | 0.567
EPSLDYMVTKI [CPS1_Y768] | 0.727
RIDRKYKKVRF [F8_Y442_G439D] | 0.807
